What is called Ki is the dissociation constant of the complex between target and ligand, obtained from inhibition or displacement. Low readings indicate a stronger hold on the target, high ones a looser hold on the target.

For the assay, the target named is Mce1-(227–567) protein, RNA guanylyltransferase (GTase) domain of mouse mammalian capping enzyme (mouse) (UniProt O55236). Briefly: fluorescence polarisation.
Mce1-(227–567) protein, RNA guanylyltransferase (GTase) domain of mouse mammalian capping enzyme (mouse), sequence (O55236 227-567): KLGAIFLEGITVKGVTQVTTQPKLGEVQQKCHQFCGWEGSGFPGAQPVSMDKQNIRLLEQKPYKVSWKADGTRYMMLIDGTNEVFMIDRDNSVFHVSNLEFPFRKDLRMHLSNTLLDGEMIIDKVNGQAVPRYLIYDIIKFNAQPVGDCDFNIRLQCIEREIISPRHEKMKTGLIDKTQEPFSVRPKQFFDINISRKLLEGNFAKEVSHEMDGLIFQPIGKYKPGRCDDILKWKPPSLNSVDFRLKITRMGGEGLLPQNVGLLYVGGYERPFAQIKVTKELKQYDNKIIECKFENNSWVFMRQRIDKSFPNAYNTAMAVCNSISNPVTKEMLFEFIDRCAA

“unlabeled 11 aa phosphorylated CTD peptide (S2P3T4S5PP6S7Y1S2PP3T4S5)”: the Ki worked out at 160 µM.
